Reference: article PMC4081071

T1: GLD-1 KH-QUA2 (Caenorhabditis elegans, UniProt Q17339 195-336)
T1 sequence: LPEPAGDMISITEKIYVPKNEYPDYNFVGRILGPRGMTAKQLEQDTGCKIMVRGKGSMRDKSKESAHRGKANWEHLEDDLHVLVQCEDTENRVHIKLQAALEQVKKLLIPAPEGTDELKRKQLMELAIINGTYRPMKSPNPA

T2: GLD-1 KH-QUA2 P228A (Caenorhabditis elegans, UniProt Q17339 195-336, P228A)
T2 sequence: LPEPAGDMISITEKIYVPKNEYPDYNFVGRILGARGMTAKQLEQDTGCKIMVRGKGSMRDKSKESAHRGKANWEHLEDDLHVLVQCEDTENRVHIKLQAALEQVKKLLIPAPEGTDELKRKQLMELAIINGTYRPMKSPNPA

T3: GLD-1 KH-QUA2 P228S (Caenorhabditis elegans, UniProt Q17339 195-336, P228S)
T3 sequence: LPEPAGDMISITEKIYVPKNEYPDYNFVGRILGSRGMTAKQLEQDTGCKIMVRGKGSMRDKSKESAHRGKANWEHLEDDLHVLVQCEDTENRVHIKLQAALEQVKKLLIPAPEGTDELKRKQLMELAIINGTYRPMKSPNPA


Key:
GLD-1 KH-QUA2 [1] = molecular target: T1, GLD-1 KH-QUA2; test: NMR HSQC titration
GLD-1 KH-QUA2 P228A = molecular target: T2, GLD-1 KH-QUA2 P228A; test: ITC
GLD-1 KH-QUA2 P228S = molecular target: T3, GLD-1 KH-QUA2 P228S; test: NMR HSQC titration
GLD-1 KH-QUA2 [2] = molecular target: T1, GLD-1 KH-QUA2; test: ITC

Row | Binder | binding result (GLD-1 KH-QUA2 [1]) | binding signal (GLD-1 KH-QUA2 P228A) | binding result (GLD-1 KH-QUA2 P228S) | Kd (GLD-1 KH-QUA2 [2])
1 | AUUUAAUUU (ssRNA) [tra-2 TGE weak site] | binds | – | – | –
2 | CUACUCAUAU (ssRNA) [tra-2 TGE strong site] | – | 19 fold decrease in affinity vs wild type | binds | 61 ± 3 nM
